The numbers were not newly measured in paper PMC8043720, which cites them from elsewhere.

The series has as its target NaV1.7 (Homo sapiens) (UniProt Q15858).
Sequence of UniProt Q15858 (Q15858 whole entry): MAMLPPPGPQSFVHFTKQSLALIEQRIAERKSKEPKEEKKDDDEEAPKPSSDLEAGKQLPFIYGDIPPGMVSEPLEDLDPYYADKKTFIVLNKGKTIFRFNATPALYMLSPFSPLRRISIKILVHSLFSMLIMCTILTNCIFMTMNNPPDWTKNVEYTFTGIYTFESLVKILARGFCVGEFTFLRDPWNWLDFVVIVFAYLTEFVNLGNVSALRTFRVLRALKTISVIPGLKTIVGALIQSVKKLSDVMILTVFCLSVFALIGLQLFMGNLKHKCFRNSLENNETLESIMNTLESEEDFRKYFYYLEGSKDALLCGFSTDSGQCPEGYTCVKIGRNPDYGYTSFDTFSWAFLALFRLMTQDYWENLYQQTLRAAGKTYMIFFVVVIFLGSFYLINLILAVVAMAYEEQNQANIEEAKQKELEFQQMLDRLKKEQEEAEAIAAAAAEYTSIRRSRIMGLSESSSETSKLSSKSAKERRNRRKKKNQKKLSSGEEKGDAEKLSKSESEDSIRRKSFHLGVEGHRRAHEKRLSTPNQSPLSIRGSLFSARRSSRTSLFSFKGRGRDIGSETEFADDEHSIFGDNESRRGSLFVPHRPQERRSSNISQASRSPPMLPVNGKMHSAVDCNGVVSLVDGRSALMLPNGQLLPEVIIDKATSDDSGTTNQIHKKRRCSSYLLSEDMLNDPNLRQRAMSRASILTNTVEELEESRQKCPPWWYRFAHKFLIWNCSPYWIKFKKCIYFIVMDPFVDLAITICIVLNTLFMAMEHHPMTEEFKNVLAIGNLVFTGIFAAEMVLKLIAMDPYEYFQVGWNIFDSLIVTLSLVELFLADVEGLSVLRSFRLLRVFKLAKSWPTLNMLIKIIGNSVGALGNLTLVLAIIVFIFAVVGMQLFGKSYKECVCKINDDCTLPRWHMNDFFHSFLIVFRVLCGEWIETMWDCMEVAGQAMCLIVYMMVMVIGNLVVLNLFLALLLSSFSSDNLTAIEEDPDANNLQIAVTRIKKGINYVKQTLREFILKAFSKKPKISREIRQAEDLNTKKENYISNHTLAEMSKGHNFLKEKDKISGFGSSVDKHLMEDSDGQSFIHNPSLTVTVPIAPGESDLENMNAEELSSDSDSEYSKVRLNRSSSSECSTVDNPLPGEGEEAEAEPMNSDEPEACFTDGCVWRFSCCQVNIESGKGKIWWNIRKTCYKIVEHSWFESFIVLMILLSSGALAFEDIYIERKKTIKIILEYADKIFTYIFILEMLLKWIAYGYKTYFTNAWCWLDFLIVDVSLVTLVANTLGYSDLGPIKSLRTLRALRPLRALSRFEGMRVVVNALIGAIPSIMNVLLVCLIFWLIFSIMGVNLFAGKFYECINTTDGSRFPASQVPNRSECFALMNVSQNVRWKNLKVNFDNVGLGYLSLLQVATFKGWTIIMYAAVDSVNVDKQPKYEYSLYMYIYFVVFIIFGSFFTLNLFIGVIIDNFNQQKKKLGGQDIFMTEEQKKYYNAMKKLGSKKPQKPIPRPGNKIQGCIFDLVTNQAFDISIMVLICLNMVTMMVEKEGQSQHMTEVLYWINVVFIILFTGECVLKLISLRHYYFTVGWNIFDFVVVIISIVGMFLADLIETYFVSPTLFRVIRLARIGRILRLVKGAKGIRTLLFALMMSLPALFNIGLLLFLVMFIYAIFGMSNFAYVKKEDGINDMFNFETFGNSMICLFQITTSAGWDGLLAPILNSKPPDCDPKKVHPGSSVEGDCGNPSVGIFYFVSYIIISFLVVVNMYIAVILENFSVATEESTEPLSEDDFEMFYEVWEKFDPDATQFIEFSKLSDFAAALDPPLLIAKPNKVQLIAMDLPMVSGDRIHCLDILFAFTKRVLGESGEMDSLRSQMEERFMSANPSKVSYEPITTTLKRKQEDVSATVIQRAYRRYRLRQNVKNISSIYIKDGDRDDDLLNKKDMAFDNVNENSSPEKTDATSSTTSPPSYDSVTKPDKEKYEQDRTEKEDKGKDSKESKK

On to HwTx-IV (from UniProt P83303), for which the Kd is 26 nM.

What is called Kd is the equilibrium constant for the complex coming apart.
